Blank lines part the entries; values can stand above or below the molecule they belong to.
Assays:
[1] = target: Gαolf (G protein alpha subunit which is specifically expressed on an olfactory epithelium) (mouse) (UniProt Q8CGK7)
[2] = target: Gαolf (G protein alpha subunit which is specifically expressed on an olfactory epithelium) (mouse, UniProt Q8CGK7); experiment: cell-based or functional assay

- concentration of cAMP (EIA, normalised to protein) after isoproterenol [1]: 0.956 pmol/µg
Molecule: beta-1 adrenergic receptor (β1AR)

- concentration increase value of the cAMP (300 µM eugenol minus 0 µM) [2]: 0.0009 pmol/microgram
B1: chimeric olfactory receptor chimera3 (receptor)
chain: MNGTEGPNFYVPFSNKTGVVEQKLISEEDLEFMGAGALALGASEPCNLSSAAPLPDGAATAARLLVLASPPASLLPPASEGSAPLSQQWTAGMGLLLALIVLLIVVGNVLVIVAIAKTPRLQTLTNLTRPMYFFLSHLSFVDFCYSSIVAPKMLVNLVTMNRGISFVGCLVQFFFFCTFVVTESFLLGVMAYDRFVAIRNPLLYTVAMSQRLCAMLVLGSYAWGVVCSLILTCSALNLSFYGFNMINHFFCEFSSLLSLSRSDTSVSQLLLFVFATFNEISTLLIILLSYVLIVVTILKMKSASGRRKAFSTCASHLTAITIFHGTILFLYCVPNSKNSRHTVKVASVFYTVVIPMLNPLIYSLRNKSRDFRKAFQRLLCCARRAACRRRAAHGDRPRASGCLARAGPPPSPGAPSDDDDDDAGATPPARLLEPWAGCNGGTTTVDSDSSLDEPGRQGFSSESKV

- concentration increase value of the cAMP (300 µM eugenol minus 0 µM) [2]: 0.0061 pmol/microgram
B2: Rho-mOREG (mouse olfactory receptor for eugenol with N-terminal Rho tag) (receptor)
chain: MNGTEGPNFYVPFSNKTGVVMTLSDGNHSGAVFTLLGFSDYPELTIPLFLIFLTIYSITVVGNIGMIVIIRINPKLHIPMYFFLSHLSFVDFCYSSIVAPKMLVNLVTMNRGISFVGCLVQFFFFCTFVVTESFLLGVMAYDRFVAIRNPLLYTVAMSQRLCAMLVLGSYAWGVVCSLILTCSALNLSFYGFNMINHFFCEFSSLLSLSRSDTSVSQLLLFVFATFNEISTLLIILLSYVLIVVTILKMKSASGRRKAFSTCASHLTAITIFHGTILFLYCVPNSKNSRHTVKVASVFYTVVIPMLNPLIYSLRNKDVKDTVKKIIGTKVYSS

- concentration increase value of the cAMP (300 µM eugenol minus 0 µM) [2]: 0.0185 pmol/microgram
B3: chimeric olfactory receptor chimera1 (receptor)
chain: MNGTEGPNFYVPFSNKTGVVEQKLISEEDLEFMTLSDGNHSGAVFTLLGFSDYPELTIPLFLIFLTIYSITVVGNIGMIVIIRINPKLHIPMYFFLSHLSFVDFCYSSIVAPKMLVNLVTMNRGISFVGCLVQFFFFCTFVVTESFLLGVMAYDRFVAIRNPLLYTVAMSQRLCAMLVLGSYAWGVVCSLILTCSALNLSFYGFNMINHFFCEFSSLLSLSRSDTSVSQLLLFVFATFNEISTLLIILLSYVLIVVTILKMKSASGRRKAFSTCASHLTAITIFHGTILFLYCVPNSKNSRHTVKVASVFYTVVIPMLNPLIYSLRNKDFRKAFQRLLCCARRAACRRRAAHGDRPRASGCLARAGPPPSPGAPSDDDDDDAGATPPARLLEPWAGCNGGTTTVDSDSSLDEPGRQGFSSESKV

- concentration increase value of the cAMP (300 µM eugenol minus 0 µM) [2]: 0.0056 pmol/microgram
B4: chimeric olfactory receptor chimeraTM7 (receptor)
chain: MNGTEGPNFYVPFSNKTGVVEQKLISEEDLEFMTLSDGNHSGAVFTLLGFSDYPELTIPLFLIFLTIYSITVVGNIGMIVIIRINPKLHIPMYFFLSHLSFVDFCYSSIVAPKMLVNLVTMNRGISFVGCLVQFFFFCTFVVTESFLLGVMAYDRFVAIRNPLLYTVAMSQRLCAMLVLGSYAWGVVCSLILTCSALNLSFYGFNMINHFFCEFSSLLSLSRSDTSVSQLLLFVFATFNEISTLLIILLSYVLIVVTILKMKSASGRRKAFSTCASHLTAITIFHGTILFLYCVPNSKNSRHTPDRLFVFFNWLGYANSAFNPIIYCRSPDFRKAFQRLLCCARRAACRRRAAHGDRPRASGCLARAGPPPSPGAPSDDDDDDAGATPPARLLEPWAGCNGGTTTVDSDSSLDEPGRQGFSSESKV

- concentration increase value of the cAMP (300 µM eugenol minus 0 µM) [2]: 0.0109 pmol/microgram
B5: Rho-myc-mOREG (mouse olfactory receptor for eugenol with Rho tag and myc epitope tag) (receptor)
chain: MNGTEGPNFYVPFSNKTGVVEQKLISEEDLEFMTLSDGNHSGAVFTLLGFSDYPELTIPLFLIFLTIYSITVVGNIGMIVIIRINPKLHIPMYFFLSHLSFVDFCYSSIVAPKMLVNLVTMNRGISFVGCLVQFFFFCTFVVTESFLLGVMAYDRFVAIRNPLLYTVAMSQRLCAMLVLGSYAWGVVCSLILTCSALNLSFYGFNMINHFFCEFSSLLSLSRSDTSVSQLLLFVFATFNEISTLLIILLSYVLIVVTILKMKSASGRRKAFSTCASHLTAITIFHGTILFLYCVPNSKNSRHTVKVASVFYTVVIPMLNPLIYSLRNKDVKDTVKKIIGTKVYSS

- concentration increase value of the cAMP (300 µM eugenol minus 0 µM) [2]: 0.0017 pmol/microgram
B6: chimeric olfactory receptor chimeraIC3 (receptor)
chain: MNGTEGPNFYVPFSNKTGVVEQKLISEEDLEFMTLSDGNHSGAVFTLLGFSDYPELTIPLFLIFLTIYSITVVGNIGMIVIIRINPKLHIPMYFFLSHLSFVDFCYSSIVAPKMLVNLVTMNRGISFVGCLVQFFFFCTFVVTESFLLGVMAYDRFVAIRNPLLYTVAMSQRLCAMLVLGSYAWGVVCSLILTCSALNLSFYGFNMINHFFCEFSSLLSLSRSDTSVSQLLLFVFATFNEISTLLIILLSYVFREAQKQVKKIDSCERRFLSGPPRPPSPAPSPSPGPPRPADSLANGRSSKRRPSRLVALREQKAFSTCASHLTAITIFHGTILFLYCVPNSKNSRHTVKVASVFYTVVIPMLNPLIYSLRNKDVKDTVKKIIGTKVYSS

- concentration increase value of the cAMP (300 µM eugenol minus 0 µM) [2]: 0.004 pmol/microgram
B7: chimeric olfactory receptor chimeraIC3-IC4 (receptor)
chain: MNGTEGPNFYVPFSNKTGVVEQKLISEEDLEFMTLSDGNHSGAVFTLLGFSDYPELTIPLFLIFLTIYSITVVGNIGMIVIIRINPKLHIPMYFFLSHLSFVDFCYSSIVAPKMLVNLVTMNRGISFVGCLVQFFFFCTFVVTESFLLGVMAYDRFVAIRNPLLYTVAMSQRLCAMLVLGSYAWGVVCSLILTCSALNLSFYGFNMINHFFCEFSSLLSLSRSDTSVSQLLLFVFATFNEISTLLIILLSYVFREAQKQVKKIDSCERRFLSGPPRPPSPAPSPSPGPPRPADSLANGRSSKRRPSRLVALREQKAFSTCASHLTAITIFHGTILFLYCVPNSKNSRHTVKVASVFYTVVIPMLNPLIYSLRNKDFRKAFQRLLCCARRAACRRRAAHGDRPRASGCLARAGPPPSPGAPSDDDDDDAGATPPARLLEPWAGCNGGTTTVDSDSSLDEPGRQGFSSESKV
